From patent publication US20030175735

System: recombinant protein ACp5 (p5 cleavage site of the HIV protease inserted between amino acids 224 and 225 of the adenyl cyclase of B. pertussis)

wild-type protease of the HIV virus was tested. Which cleavage in vitro did it give?
The cleavage in vitro was “The cleavage of ACp5 by the HIV protease was also shown in vitro”.

What about the “phenotype on McConkey maltose medium of DHT1 bacteria cotransformed with pKACp5 and pUCVIH” value of the same substance?
Its value is “exhibit a Cya^- phenotype (white colonies on McConkey maltose medium) in the absence of protease inhibitors”.
